From the supplement of paper PMC9112550, “Optimization of the antimicrobial peptide Bac7 by deep mutational scanning” (BMC Biology, 2022)

Each sequence was assayed on Escherichia coli TOP10 (assay: shrunken log2 fold change of peptide-encoding DNA abundance (4.5 h post-induction vs induction); higher = less antimicrobial activity (less host growth inhibition)). Settings: time post-induction: 4.5 h; library: site-saturation at positions 5, 18, 19, 20.
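Also: peptides expressed intracellularly from a pBAD plasmid library in pooled LB shake-flask culture, induced with 0.3% L-arabinose, DNA abundance read by NGS, three biological replicates, DESeq2 with apeglm shrinkage.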

Point of comparison: RRIRWRPPRLPRPRPRPEIIPRP, “shrunken log2 fold change” value 0.231. Against it:
- RRIRSRPPRLPRPRPRPDDKPRP — within 0.2 log units, 0.132
- RRIRARPPRLPRPRPRPFWKPRP — lower, -0.13
- RRIRWRPPRLPRPRPRPGDRPRP — higher, 0.468
- RRIRRRPPRLPRPRPRPPDRPRP — within 0.2 log units, 0.21
- RRIRLRPPRLPRPRPRPNGQPRP — lower, 0.00827
- RRIRWRPPRLPRPRPRPMVHPRP — lower, 0.0275
- RRIRKRPPRLPRPRPRPFKYPRP — lower, -0.517
- RRIRIRPPRLPRPRPRPPTVPRP — lower, -0.155
- RRIRGRPPRLPRPRPRPIFLPRP — within 0.2 log units, 0.0935
- RRIRMRPPRLPRPRPRPFQRPRP — lower, -0.0335
- RRIRCRPPRLPRPRPRPPRDPRP — higher, 0.84
- RRIRPRPPRLPRPRPRPDMCPRP — lower, 0.00204
- RRIRPRPPRLPRPRPRPACPPRP — within 0.2 log units, 0.147
- RRIRVRPPRLPRPRPRPTYHPRP — higher, 1.5
- RRIRKRPPRLPRPRPRPSWCPRP — lower, -0.152
- RRIRDRPPRLPRPRPRPEFAPRP — higher, 1.54
- RRIRNRPPRLPRPRPRPNGHPRP — lower, -0.41
- RRIRMRPPRLPRPRPRPFQFPRP — lower, -0.0349
- RRIRYRPPRLPRPRPRPLDHPRP — lower, -0.119
- RRIRHRPPRLPRPRPRPSGWPRP — lower, -0.291
- RRIRKRPPRLPRPRPRPHGNPRP — lower, -0.0306
- RRIRRRPPRLPRPRPRPRIWPRP — higher, 0.666
- RRIRQRPPRLPRPRPRPPFLPRP — within 0.2 log units, 0.186
- RRIRYRPPRLPRPRPRPMKDPRP — lower, -0.317
- RRIRPRPPRLPRPRPRPVCRPRP — lower, -0.0794
- RRIRFRPPRLPRPRPRPFREPRP — lower, -0.0914
- RRIRYRPPRLPRPRPRPIDQPRP — lower, -0.0356
- RRIRKRPPRLPRPRPRPCNDPRP — lower, -0.0241
- RRIRVRPPRLPRPRPRPDWGPRP — within 0.2 log units, 0.184
- RRIRQRPPRLPRPRPRPHMLPRP — lower, -1.18
- RRIRDRPPRLPRPRPRPYFPPRP — lower, -0.944
- RRIRSRPPRLPRPRPRPCIIPRP — lower, 0.00867
- RRIRGRPPRLPRPRPRPRNYPRP — lower, 0.00522
- RRIRCRPPRLPRPRPRPYPIPRP — lower, -0.198
- RRIRPRPPRLPRPRPRPMESPRP — lower, 0.0152
- RRIRDRPPRLPRPRPRPQFLPRP — lower, -0.225
- RRIRQRPPRLPRPRPRPHTHPRP — lower, -0.342
- RRIRSRPPRLPRPRPRPLYCPRP — lower, -0.523
- RRIRRRPPRLPRPRPRPNICPRP — within 0.2 log units, 0.0828
- RRIRWRPPRLPRPRPRPSDCPRP — lower, -0.183
- RRIRGRPPRLPRPRPRPQPTPRP — higher, 1.02
- RRIRARPPRLPRPRPRPWMKPRP — lower, -0.172
- RRIRSRPPRLPRPRPRPKLWPRP — higher, 0.564
- RRIRARPPRLPRPRPRPMKCPRP — lower, -0.0407
- RRIRQRPPRLPRPRPRPHEDPRP — lower, 0.0107
- RRIRGRPPRLPRPRPRPSSMPRP — lower, -0.0636
- RRIRIRPPRLPRPRPRPECHPRP — lower, 0.0255
- RRIRWRPPRLPRPRPRPRYVPRP — lower, -0.147
- RRIRMRPPRLPRPRPRPKVQPRP — higher, 1.85
- RRIRMRPPRLPRPRPRPTKFPRP — within 0.2 log units, 0.339
- RRIRQRPPRLPRPRPRPVLDPRP — within 0.2 log units, 0.0663
- RRIRQRPPRLPRPRPRPHLTPRP — lower, -0.016
- RRIRYRPPRLPRPRPRPYDMPRP — lower, -1.35
- RRIRARPPRLPRPRPRPPITPRP — within 0.2 log units, 0.261
- RRIRVRPPRLPRPRPRPFRSPRP — lower, -0.267
- RRIRTRPPRLPRPRPRPVATPRP — within 0.2 log units, 0.299
- RRIRQRPPRLPRPRPRPQPNPRP — within 0.2 log units, 0.26
- RRIRTRPPRLPRPRPRPVIVPRP — lower, -0.314
- RRIRQRPPRLPRPRPRPSHAPRP — lower, -0.107
- RRIRCRPPRLPRPRPRPIYVPRP — lower, -0.447
- RRIRKRPPRLPRPRPRPIWYPRP — lower, -0.26
- RRIRLRPPRLPRPRPRPHYTPRP — lower, -0.118
- RRIRQRPPRLPRPRPRPKYMPRP — lower, -0.386
- RRIRIRPPRLPRPRPRPIYAPRP — lower, -0.758
- RRIRIRPPRLPRPRPRPLTLPRP — lower, -0.22
- RRIRWRPPRLPRPRPRPGWKPRP — within 0.2 log units, 0.0668
- RRIRQRPPRLPRPRPRPTWGPRP — within 0.2 log units, 0.168
- RRIRERPPRLPRPRPRPLCGPRP — lower, -0.2
- RRIRPRPPRLPRPRPRPTYHPRP — lower, -0.274
- RRIRHRPPRLPRPRPRPLKAPRP — lower, -0.364
- RRIRCRPPRLPRPRPRPNLQPRP — lower, -0.506
- RRIRERPPRLPRPRPRPPNPPRP — within 0.2 log units, 0.216
- RRIRCRPPRLPRPRPRPYFMPRP — lower, -0.91
- RRIRDRPPRLPRPRPRPKMDPRP — within 0.2 log units, 0.0675
- RRIRCRPPRLPRPRPRPFAMPRP — lower, -0.495
- RRIRERPPRLPRPRPRPKWRPRP — lower, -0.102
- RRIRQRPPRLPRPRPRPLTMPRP — lower, 0.00947
- RRIRNRPPRLPRPRPRPFEIPRP — lower, -0.0195
- RRIRDRPPRLPRPRPRPFDHPRP — lower, 0.0299
- RRIRGRPPRLPRPRPRPIEHPRP — within 0.2 log units, 0.125
- RRIRTRPPRLPRPRPRPVAYPRP — lower, -0.502
- RRIRSRPPRLPRPRPRPHIPPRP — lower, -0.836
- RRIRDRPPRLPRPRPRPASSPRP — lower, 0.0229
- RRIRHRPPRLPRPRPRPVDLPRP — lower, -0.314
- RRIRSRPPRLPRPRPRPTTCPRP — lower, 0.0283
- RRIRTRPPRLPRPRPRPYRIPRP — lower, -0.0176
- RRIRLRPPRLPRPRPRPAEYPRP — lower, -0.0275
- RRIRFRPPRLPRPRPRPIWRPRP — within 0.2 log units, 0.248
- RRIRRRPPRLPRPRPRPAIDPRP — within 0.2 log units, 0.193
- RRIRNRPPRLPRPRPRPAWLPRP — within 0.2 log units, 0.276
- RRIRVRPPRLPRPRPRPMVQPRP — within 0.2 log units, 0.159
- RRIRCRPPRLPRPRPRPERMPRP — lower, -0.015
- RRIRTRPPRLPRPRPRPTDAPRP — higher, 0.471
- RRIRARPPRLPRPRPRPDFNPRP — within 0.2 log units, 0.0591
- RRIRQRPPRLPRPRPRPLVTPRP — lower, -0.122
- RRIRARPPRLPRPRPRPGKKPRP — lower, -0.133
- RRIRRRPPRLPRPRPRPDSAPRP — within 0.2 log units, 0.288
- RRIRIRPPRLPRPRPRPLDAPRP — lower, -0.142
- RRIRVRPPRLPRPRPRPMTSPRP — lower, -0.128
- RRIRMRPPRLPRPRPRPESEPRP — higher, 3.39
- RRIRIRPPRLPRPRPRPIDKPRP — lower, -0.364
- RRIRARPPRLPRPRPRPIHRPRP — lower, -0.26
- RRIRVRPPRLPRPRPRPTYWPRP — within 0.2 log units, 0.0478
- RRIRSRPPRLPRPRPRPWKDPRP — lower, -0.00804
- RRIRKRPPRLPRPRPRPYAMPRP — within 0.2 log units, 0.202
- RRIRVRPPRLPRPRPRPTLTPRP — lower, -0.0107
- RRIRMRPPRLPRPRPRPEKPPRP — higher, 1.34
- RRIRVRPPRLPRPRPRPMNSPRP — lower, -0.675
- RRIRWRPPRLPRPRPRPKDGPRP — lower, 0.00598
- RRIRRRPPRLPRPRPRPEIAPRP — higher, 0.84
- RRIRKRPPRLPRPRPRPPCDPRP — within 0.2 log units, 0.415
- RRIRLRPPRLPRPRPRPTDNPRP — lower, -0.391
- RRIRRRPPRLPRPRPRPCLPPRP — lower, -0.132
- RRIRCRPPRLPRPRPRPEYSPRP — lower, -0.38
- RRIRMRPPRLPRPRPRPDACPRP — higher, 1.97
- RRIRERPPRLPRPRPRPQVNPRP — lower, -0.129
- RRIRERPPRLPRPRPRPSDDPRP — lower, -0.0902
- RRIRWRPPRLPRPRPRPNTMPRP — lower, -0.301
- RRIRNRPPRLPRPRPRPEMEPRP — lower, -0.0148
- RRIRVRPPRLPRPRPRPRFRPRP — within 0.2 log units, 0.193
- RRIRNRPPRLPRPRPRPRTEPRP — lower, -0.279
- RRIRLRPPRLPRPRPRPFHDPRP — lower, -0.713
- RRIRRRPPRLPRPRPRPFHYPRP — lower, -0.259
- RRIRNRPPRLPRPRPRPCTTPRP — lower, -0.213
